Assay results: PMC12671738
Several values for one entry are separate records, joined by “and”; a condition that tells them apart may be missing. Identical values can stand only once.

Tests used:
[1] = molecular target: p33 protein of citrus tristeza virus (CTV) (citrus tristeza virus); test: SDS-PAGE and western blot of SDS-resistant oligomers; crude extract: leaf discs of agroinfiltrated N. benthamiana macerated directly in SDS loading buffer with 8 M urea; blot with anti-p33 antibody; empty vector as control
[2] = molecular target: p33 protein of citrus tristeza virus (CTV) (citrus tristeza virus); test: SDS-PAGE and western blot of SDS-resistant oligomers; p33 immunoprecipitated from N. benthamiana leaf lysate with anti-p33 antibody on protein A magnetic beads, eluted in SDS loading buffer with 100 mM DTT and 8 M urea at 70 °C; blot with anti-p33 antibody

p33 protein of citrus tristeza virus (CTV) (natural protein)
stoichiometry N [1]: 2 and 4 | stoichiometry N [2]: 2 and 4
